Measured values from publication doi:10.1101/2021.07.22.453398.
Read-outs that look alike come from different tables or passages of the source.

Tests used:
[1] = biological target: bison NHA2ΔN (structural construct, tag removed by TEV) (Bison bison); test: cryo-EM structure
[2] = biological target: bison NHA2ΔN (structural construct, tag removed by TEV) (Bison bison); test: cryo-EM structure; remark: listed apart in the source

bison NHA2ΔN (structural construct, tag removed by TEV) (domain or fragment)
stoichiometry N [1]: 2
stoichiometry N [2]: 2
